# Assay: yeast display, Sf9 membrane polyspecificity reagent, FACS + sequencing; frameworks hold sequencing errors
# Method in brief: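 Galactose-induced (36–48 hours) yeast carrying a synthetic nanobody display library were exposed to 10% biotinylated, detergent-solubilized Sf9 membrane reagent at 4 °C for 1 hour. FACS followed streptavidin microbead enrichment, using low and high (top ~1%) gates for expression (anti-HA) and reagent binding (streptavidin). Colony PCR, MiSeq 2 × 250 sequencing and CDR-length filtering followed. Labels for polyreactivity reflect the gate of origin.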
row,Sequence,polyreactivity (PSR sort gate)
1,QVQLVESGGGLVQAGGSLRLSCAASGFTIRSYVMGWYRQAPGKERELVAAIRRSGGSTYYADSVKGRFTISRDNAKNTVYLHMNSMKPEDTAVYYCAAKAYTYYARIGFDYWGQGSQVTVSS,high polyreactivity
2,QVQLVESGGGLVQAGGSLRLSCAASGFTIRSYVMGWYRQAPGKERELVAAIRRSGGSTYYADSVKGRFTISRDNAKNTVYLQMNSLKPEDTAVYYCAVGARWYWSYYWGQGTQVTVSS,high polyreactivity
3,QVQLVESGGGLVQAGGSLRLSCAASGFTIRWYTMGWYRQAPGKERELVAAISRGGSTNYADSVKGRFTISRDNAKNTVYLQMNSLKPEDTAVYYCNAVRGGRYGLDYWGQGTQVTVSS,high polyreactivity
4,QVQLVESGGGLVQAGGSLRLSCAASGFTIRWYTMGWYRQAPGKERELVAAITSGGGTYYADSVKGRFTISRDNAKNTVYLQMNILKPEDTAVYYCAARTLSVARRRPYYYWGQGTQVTGSS,high polyreactivity
5,QVQLVESGGGLVQAGGSLRLSCAASGFTIRYYAMGWYRQAPGKERELVAAIDWSGGSTYYADSVKGRFTISRDNAKNTVYLQINSLKPEDTAVYYCNVDFYDLYVYLWYVDYDYWGQGTQVTVSS,high polyreactivity
6,QVQLVESGGGLVQAGGSLRLSCAASGFTISLYTMAWYRQAPGKERELVASNTRRGGSTYYADSVKGRFTISRDYAKNTVYLQMNSLKTEDTAGYYCARAARSDSIFKPRRGYATDGYWGQVTQVTVSS,high polyreactivity
7,QVQLVESGGGLVQAGGSLRLSCAASGFTISPYAMGWYRQAPGKERELVAGITRNGGSTYYADSVKGRFTISRDNAKNTVYLQMNSLKPEDTAVYYCITKYAVEFDYWGQGTQVTVSS,low polyreactivity
8,QVQLVESGGGLVQAGGSLRLSCAASGFTISRNAMGWYRQAPGKERELVAAISQSGGSTYYADSVKGRFTISRDNAKNTVYLQMNSLKPEDTAVYYCAAQSFAQYGWRYGYWGQGTQVTVSS,high polyreactivity
9,QVQLVESGGGLVQAGGSLRLSCAASGFTISRYAIGWYRQAPGKERELVAAITGSGGSTYYADSVKGRFTISRDNAKNTVYLQMNSLKPEDTAVYYCNTLKHYKREYDYWGQGTQVTVSS,high polyreactivity
10,QVQLVESGGGLVQAGGSLRLSCAASGFTISVYVMGWYRQAPGKERELVAAISSSGGSTYYADSVKGRFTISRDNAKNTVYLQMNSLKPEDTAVYYCNAAGYWSYAYYWGQGTQVTVSS,high polyreactivity
11,QVQLVESGGGLVQAGGSLRLSCAASGFTIWRYAMGWYRQAPGKERELVAAISRGGSTNYADSVKGRFTISRDNAKKTVYLQMNSLKPEDTAGYYCAASVQYRRLKKFYYWGQGTQVTVSS,high polyreactivity
12,QVQLVESGGGLVQAGGSLRLSCAASGFTIWRYAMGWYRQEPGKERELVAAISRGGSTNYADSVKGRFTISRDNAKNTVYLQMNSLKPEDTAVYYCAASVLYRRLKKFYYWGQGTQVTVSS,high polyreactivity
13,QVQLVESGGGLVQAGGSLRLSCAASGFTIYLYTMGWYRQAPGKERELVAAITSSGTRTYYADSVKGRFTISRDNAKNTVYLQMNSLKPEDTAVYYCNAARYGRHLSTYDYWGQGTQVTVSS,high polyreactivity
14,QVQLVESGGGLVQAGGSLRLSCAASGFTIYNYAMGWYRQAPGKERELVAAISWSGGSTHYADSVKGRFTISRDNAKNTVYLQMNSLKPEDTAVYYCAKVGVLVYYTYYYWGQGTQVTVSS,low polyreactivity
15,QVQLVESGGGLVQAGGSLRLSCAASGFTIYRYAMGWYRQAPGKERELVATIRRGGSTKYADSVKGRYTISRDNAKNTVYILMISLKPEDTAVYYCNARYYAAPDKYYYWGQGTQVTVSS,low polyreactivity
16,QVQLVESGGGLVQAGGSLRLSCAASGFTIYSYAKAWYRQAPGKERELVAAITRGSSTNYADSVKGRFTISRDNAKNTVYLQMNSLKPEDTAVYYCNRGGWRQYDSWGQGTQVTVSS,high polyreactivity
17,QVQLVESGGGLVQAGGSLRLSCAASGFTLANYAMGWYRQAPGKERELVAAIDYSGGGTYYADSVKGRFTISRDNAKNTVYFQMNSLKPEDTAVYYCAARRWSYYSAKYDYWGQGTQVTVSS,low polyreactivity
18,QVQLVESGGGLVQAGGSLRLSCAASGFTLANYAMGWYRQAPGKERELVAAISSSTGGTYYADSVKGRFTISRDNAKNTVYLQMNSLKPEDTAVYYCAAEYYFHKYVRMYYWGQGTQVTVSS,high polyreactivity
19,QVQLVESGGGLVQAGGSLRLSCAASGFTLARNAMVWYRQAPGKERELVAANSWSGGTTYYADSVKGSFTISRDNAKNTVYLQMNSLKPEDTAVYYCNTASWRAQYYYWGQGNQVTVSS,high polyreactivity
20,QVQLVESGGGLVQAGGSLRLSCAASGFTLAYNAMGWYRQAPGKESELVAAISKSSGSTYYADSVKGRFTISRDNSKNTFYLQMNSLKPEDTAVYYCAAEFYFNGVWYDYWGQGTQVTVSS,high polyreactivity
21,QVQLVESGGGLVQAGGSLRLSCAASGFTLDPYAMGWYRQAPGKERELVAAIRLSGSSTYYADSVKGRFTISRDNAKNTVYLQMNSLKPEDTAVYYCAADGISHWLYRYDYWGQGTQVTVSS,low polyreactivity

row,Sequence,polyreactivity (PSR sort gate)
1,QVQLVESGGGLVQAGGSLRLSCAASGFTLDQYAMGWYRQAPGKERELVAVITSGGNTYYADSVKGRFTISRDNAKNTVYLQMNSLKPEDTAVYYCAKDVSDPFYDPFEYWGQGTQVTVSS,low polyreactivity
2,QVQLVESGGGLVQAGGSLRLSCAASGFTLDSNALGWYRQAPGKERELVAAISWDDGSTYYADSVKGRFTISRDNAKNTVYLQMNSLKPEDTAVYYCAADASDVYGDRPWFHYYWGYDYWGQGTQVTVSS,low polyreactivity
3,QVQLVESGGGLVQAGGSLRLSCAASGFTLFGYAMGWYRQAPGKERELVAAISKDGGSTYYADSVKGRFTISRDNAKNTVYLQMNSLKPEDTAVYSCAARVKRPQTGYDRRYGYWGQGTQVTVSS,high polyreactivity
4,QVQLVESGGGLVQAGGSLRLSCAASGFTLFGYAMGWYRQAPGKERELVAAISKDGGSTYYADTVKGRFTISRDNAKNTVYLQMNSLKPEDTAVYYCAARVKRPQSGYDRRYGYWGQGTQVTVSS,high polyreactivity
5,QVQLVESGGGLVQAGGSLRLSCAASGFTLFYNAMGWYRQAPGKERELVAAITARGGGTYYADSVKGRFTISRDNAKNPVYLQMNSLKPEDTAVYYCAADSFIPPYDHWGQGTQVTVSS,low polyreactivity
6,QVQLVESGGGLVQAGGSLRLSCAASGFTLGSNAMGWYRQAPGKERELVAAISWDGGRTYYADSVKGRFTISRDNAKNTVYLQMNSLKPEDTAVYYCNRASYLRGTAGGDYWGQGTQVTVSS,high polyreactivity
7,QVQLVESGGGLVQAGGSLRLSCAASGFTLGTYAMGWYRQAPGKERELVASITVTGGSTYYADSVKGRFTISRDNAKNTVYLQMNSLKPEDTAVYYCAASYQHFRSVNPYDSWGQGTQVTVSS,low polyreactivity
8,QVQLVESGGGLVQAGGSLRLSCAASGFTLGWYAMGWYRQAPGKERELVAAISRSGGSTYYADSVKGRFTISRDNAKNTVYLQMNSLKPEDTAVYSCAAEVNYAGWAVWSYYWGQGTQVTVSS,high polyreactivity
9,QVQLVESGGGLVQAGGSLRLSCAASGFTLLIYAKGWYRQAPGKERELVAAITWRGSGTYYADSVKGRFTISRDIAKNSVYLQMNSLKPEDTAVYYCAARTARRTYDYWGQGTQVTVSS,low polyreactivity
10,QVQLVESGGGLVQAGGSLRLSCAASGFTLNGYAMGWYRQAPGKERELVAAISSSGGRTYYADSVKGRFTISRDNAKNTVYLQMNCLKPEDTAVYYCAAVVYYEDGYWGQGTQVTVSS,low polyreactivity
11,QVQLVESGGGLVQAGGSLRLSCAASGFTLQGYAMGWYRQAPGKERELVAAIRWIGTSTYYADSVKGRFTISRDYAKNTVYFQMNSLKPEDTAVYYCAAYRYNTPFGYWGQGTQVTVSS,high polyreactivity
12,QVQLVESGGGLVQAGGSLRLSCAASGFTLQVYDMGWYRQAPGKERELVADISGSGDSTNYADSVKGRFTISRDNAKNTVYLQMNSLKPEDNAVYYCAAEVRGGYYGYDYWGQGTQVTVSS,low polyreactivity
13,QVQLVESGGGLVQAGGSLRLSCAASGFTLRAYAMGWYRQAPGKERELVAAISSGGSTYADSVKGRFTISRDNAKNTVYLQMNSLKPEDTAVYYCAADGSKLFYSKFRYVQYGYWGQGTQVTVSS,high polyreactivity
14,QVQLVESGGGLVQAGGSLRLSCAASGFTLRAYAMGWYRQAPGKERELVAAITQRGTGTYYADSVKGRFTISRDNAKKTVFLQMNSLKPEDTAVYYCAAEAPRWSNYYYWGQGTQVSVSS,high polyreactivity
15,QVQLVESGGGLVQAGGSLRLSCAASGFTLRLNAMGWYRQAPGKERELVAAITTSDDGTYYADSVKGRFTISRDNAKNSVYLQLNSLKPEDTAVYYCAADYYSVLYDYWGQGTQVTVSS,low polyreactivity
16,QVQLVESGGGLVQAGGSLRLSCAASGFTLRRNAMGWYRQAPGKERELVAAISRGGSTYYADSVKGRFTISRDNAKNTVYLQMNSLKPEDTAVYYCNAGWFKYYPNLQAFNYWGQGTQVTVSS,high polyreactivity
17,QVQLVESGGGLVQAGGSLRLSCAASGFTLRYYAMGWYRQAPGKERELVAAITSGGGSTYYADSVKGRFTISRDNAKNTVYLQMNSLKPEDTAVYYCNAQYGSLYYAVVLSNIYNYWGQGTQVTVSS,high polyreactivity
18,QVQLVESGGGLVQAGGSLRLSCAASGFTLRYYAMGWYRQAPGKERELVADISWSGGRTYYADSVKGRFTISRDNAKNTVYLQMNSLKPEDTAVYYCAAVRYYAHVYKSVGYDYWGQGTQVTVSS,high polyreactivity
19,QVQLVESGGGLVQAGGSLRLSCAASGFTLTAYAMGWYRQPPGKERELVAAITYTGGSTYYADSVKGRFTISRDNAKNTVYLQMNSLKPEDTAGYYCAAEFLSVPYDYGYWGQGTQVTVSS,high polyreactivity
20,QVQLVESGGGLVQAGGSLRLSCAASGFTLTRNAMGCYRQAPGKERELVAAISWSGGTTYYADSVKGRFTISRDNAKNTVYLQMNSLKPEDTAVYYCNTASWRAQYYYWGQGTQVTVSS,high polyreactivity

# Source: the nanobody polyreactivity screen of Harvey et al. (2022)
